Source: PMC9552509

Target: TACC3 (UniProt Q9Y6A5)
Assay: co-IP with anti-FLAG and anti-TACC3
Conditions: reference: wild-type stathmin1-FLAG; sites S16

binding against the reference: lost
Substance: stathmin1 (from UniProt P16949) stathmin1 S16A-FLAG
